Reference: the Immune Epitope Database (IEDB)

These sequences were tested against HLA-A*02:01 (assay: IEDB peptide-MHC binding, cellular MHC/competitive/fluorescence; ≥ and ≤ were set here for values at or beyond the usual limits of such assays). Settings: source organism: Vaccinia virus WR.

Row | Sequence | IC50 [nM]
1 | TIRVTSNGL | 23500
2 | LLVATDPDA | 17400
3 | LIRPKILSM | ≥ 70000
4 | NVTNPFDFM | 7940
5 | AVAVAAASST | 51700
6 | VTKVNNYDDT | ≥ 70000
7 | SILRSIEGEL | 5850
8 | EAVKDKNWT | 38700
9 | EVVANVIGL | 12200

The sequences below were run against HLA-A*02:01 (assay: IEDB peptide-MHC binding, purified MHC/competitive/radioactivity; ≥ and ≤ were set here for values at or beyond the usual limits of such assays). Settings: source organism: Hepatitis B virus.

Row | Sequence | IC50 [nM]
10 | GLSPTVWLSV | 29

Same assay, conditions: source organism: Mammarenavirus brazilense

Row | Sequence | IC50 [nM]
11 | EAINIALIAV | 1480
12 | FQLIFFLTLA | 229
13 | NLSNCVHPAV | 153
14 | FQLIFFLTL | 353
15 | MVNHSTYYV | 27
16 | TLVDICFWST | 13
17 | ALTSLGLLYT | 593
18 | ALIAVSLIAA | 28

Same assay, conditions: source organism: Mammarenavirus choriomeningitidis

Row | Sequence | IC50 [nM]
19 | SIISHNFCNL | 3680
20 | ALPHIIDEV | 57
21 | YIACRTSIV | 46

Same assay, conditions: source organism: Mammarenavirus juninense

Row | Sequence | IC50 [nM]
22 | GLHTEFQTV | 129
23 | SLIAIIKGV | 12
24 | FQFFVFLAL | 675
25 | SLKAFFSWSL | 1600

Same assay, conditions: source organism: Mammarenavirus lassaense

Row | Sequence | IC50 [nM]
26 | LMDCIMFDAA | 595
27 | GTMPSLTLA | 1670
28 | SLQSAGFTA | 1250

Same assay, conditions: source organism: Mammarenavirus machupoense

Row | Sequence | IC50 [nM]
29 | FLPKAAFAL | 30

Same assay, conditions: source organism: Mammarenavirus whitewaterense

Row | Sequence | IC50 [nM]
30 | GLVDVCFWST | 71
31 | GLLQFIVFLL | 242
32 | CMINDTHFLL | 66

Same assay, conditions: source organism: Vaccinia virus WR

Row | Sequence | IC50 [nM]
33 | YMATTILEMV | 1.5
34 | SIYECITFL | 77
35 | TMSAFLIVRL | 448
36 | IAISSLNKL | 1500
37 | AMFTTMYNI | 2.8
38 | ILGMLFSDRV | 17
39 | SLHSLSVET | 266
40 | GVSKKNIWL | 3160
41 | GLSGDSERV | 626
42 | SLDVINYLI | 0.55
43 | RVYKTIWEI | 285
44 | LIFFVIILA | 234
45 | KLLLWFNYL | 2
46 | WLLGFIKCI | 25
47 | RVIGLCIRI | 17
48 | FTLTGSPSST | 4460
49 | YQLAGYILT | 16
50 | YVPGYSITT | 132
51 | YIYYFFIRL | 8.8
52 | LITLTNVVNI | 1060
53 | YLLSGSDLFI | 0.25
54 | KLFFAKCLV | 23
55 | VILFIMFMLI | 384
56 | PMLYQLLEAV | 1090

Row | Sequence | IC50 [nM]
57 | KLHLISLLSL | 97
58 | SLVEMMWDL | 11
59 | RLNPEVSYFT | 128
60 | KLDYWSFQL | 2.1
61 | VLYPVIFIT | 9.3
62 | TVTNKEGVKI | 2880
63 | IVALTIMGV | 27
64 | YLVNAIIDSA | 134
65 | SLFSLLLVI | 5.8
66 | YINTHNEVGI | 1640
67 | YVKTLLISM | 1890
68 | SIRFHIKEL | 1560
69 | STIDGRIVTL | 736
70 | TIDQTANVV | 549
71 | FMMVLPGAA | 6.7
72 | LMDSIFVST | 0.72
73 | TIIALLFAL | 12
74 | LIYSMEFTNL | 345
75 | AIYKLGSSI | 1100
76 | ALLSRFFNM | 0.61
77 | TLAPFNFLV | 0.22
78 | YIDALAKNA | 473
79 | DLYDYITRI | 1030
80 | ALNHLVLSL | 0.45

Row | Sequence | IC50 [nM]
81 | VLYDEFKCFI | 5.9
82 | FIDILLFVI | 14
83 | LTDSLSSQM | 4270
84 | HLEWLLGFI | 173
85 | RISMVISLL | 1460
86 | LLDLFGPEV | 6
87 | IVMDNDDNI | 445
88 | TTTSEVVDML | 2520
89 | SQYYFSMLV | 13
90 | RVFNEYGFVL | 535
91 | KLFLIKKMA | 1070
92 | YLCTFMIIT | 87
93 | QTSVFSATV | 1670
94 | FIKPPLITL | 373
95 | KIDKLRQIV | 1560
96 | LVITINYFL | 25
97 | KVFFGPIYYL | 18
98 | AALGGSVNI | 1460
99 | LLPGFVLTCI | 3.7
100 | LTDKKTFII | 881
101 | IVFVFILTA | 294
102 | YLPKQPEGV | 1.2
103 | YLYETYHLI | 2.4
104 | TVASAQIHL | 3130

Row | Sequence | IC50 [nM]
105 | LMPIRTDTT | 2170
106 | IIIPFIAYFV | 1.2
107 | YLAIPDLYGI | 8.2
108 | ELMYIFAAL | 108
109 | FVFILTAIL | 4.1
110 | SMLGIWFFT | 0.65
111 | IMVTDTINT | 2360
112 | RTLLGLILFV | 20
113 | FLIVSLCPT | 1.5
114 | YLFRIVSTV | 1.2
115 | CVLTTIDGV | 293
116 | YLSSWTPVV | 0.33
117 | YQYVRLHEM | 9.2
118 | NVVSSSTIA | 588
119 | DALATFTVNI | 178
120 | ALAKNASEL | 73
121 | RLLDDLVIV | 0.65
122 | YLDFLLLLL | 0.43
123 | KTIIDPDFV | 346
124 | VLVDNVDFAT | 16
125 | FQYVSYSNFI | 1450
126 | FIKGFLYHT | 1320
127 | FVARVFLGL | 19
128 | FMIEGLMTSL | 0.2

Row | Sequence | IC50 [nM]
129 | FIRYGDASLM | 2360
130 | ILPVIFLSI | 0.66
131 | LVLGIALLYI | 6.7
132 | FIISVISLV | 0.91
133 | RLFSYNFTT | 0.23
134 | LVDNVDFAT | 461
135 | NLNMTDGDSV | 4320
136 | ILASIIDYV | 0.61
137 | RVYEALYYV | 1.5
138 | ITLSLSKQDI | 211
139 | IMLEGETKL | 6.7
140 | KLVDICDRI | 6.9
141 | KMAGGIGLSI | 9.7
142 | VIFLISVIVL | 1540
143 | FIADIGIGV | 0.3
144 | LAERFCTEV | 234
145 | QLLEAVYGNI | 199
146 | NISTILYFT | 128
147 | IIILAVLFI | 1660
148 | LLFLVCFPST | 413
149 | AITDAAVAVA | 3830
150 | FILTAILFFM | 0.12
151 | YLLSLFSTLV | 0.32
152 | LIVLFEVFV | 1930

Row | Sequence | IC50 [nM]
153 | PLYEVNSTM | 4580
154 | FLVFVKPTT | 516
155 | GVIEYAKSI | 4180
156 | YVHGDTYSL | 71
157 | KIADDRIVV | 6.6
158 | SLLVAPMPT | 935
159 | TLVAIFSYI | 863
160 | MITMSAFLI | 422
161 | PVLMFLLFYV | 69
162 | LVDNVDFATI | 3670
163 | NIYCLEYINT | 882
164 | YLDFLLLLLI | 18
165 | TIATYIDAL | 610
166 | RISGSNIVI | 3670
167 | LLFDRDTFYI | 0.4
168 | FMIITSTKTI | 1480
169 | RTCSNWVPL | 4.9
170 | FILGIIITV | 0.11
171 | VILSPPINA | 872
172 | YIIKNTFNV | 0.54
173 | LLYAHINAL | 8.3
174 | KLYLVDYGL | 13
175 | LLEAVYGNI | 864
176 | NVDSTDELM | 1940

Row | Sequence | IC50 [nM]
177 | FINFFNLLA | 726
178 | VMAYVGIKL | 1300
179 | SMVISLLSMI | 79
180 | SVVIYDFLV | 1.1
181 | DTVFDYYVL | 54
182 | RLYDYFTRV | 11
183 | ILGILYLYET | 73
184 | VMKLFTISV | 8
185 | HIIIVALTIM | 1670
186 | IQESFIRFTV | 17
187 | LLSLFSTLV | 12
188 | KLTDKKTFI | 1120
189 | GLADAFILL | 13
190 | YILCNMALL | 0.38
191 | EVVDMLSTYL | 1780
192 | KLQAAVMET | 363
193 | AIMESDSFL | 173
194 | GLLDRLYDL | 0.13
195 | SIRLELVNLI | 2170
196 | MMKTYIEFV | 4.7
197 | VLITWLIDYV | 0.8
198 | NLLLWPLYV | 0.12
199 | LQKFSFKIA | 4660
200 | ILSNYVKTLL | 7.5

Row | Sequence | IC50 [nM]
201 | TISVVTLLCV | 3420
202 | IVLYNGVNYL | 225
203 | SLSLHPLYV | 9.8
204 | LLSLLVIWIL | 112
205 | YLLDRGADI | 8.6
206 | KLIGITAIM | 20
207 | YIIDKDTNSV | 30
208 | RTVIHLEWLL | 134
209 | MLMFIFTGI | 0.38
210 | AITDAAVAV | 1480
211 | FVFAWFNGV | 0.38
212 | YILHSDYQL | 13
213 | ILYMVVDGSV | 107
214 | FIFTGITLFL | 0.92
215 | ILPCPQINTL | 1380
216 | SLNLTIVSV | 26
217 | IVVELEPSL | 2110
218 | GIKSVVVPI | 869
219 | IITNAGTCTV | 454
220 | SIDQKKSYV | 188
221 | GLIACLIFV | 7.7
222 | RVFNEYGFV | 190
223 | YLMPYSVYI | 0.26
224 | LTNEIYASII | 4330

Row | Sequence | IC50 [nM]
225 | FTDASTVASA | 793
226 | LTNEIYASI | 864
227 | IVYCLNALV | 102
228 | ALVALVITI | 1.9
229 | IVEVPEDGI | 2450
230 | IIITCCLLSV | 6.3
231 | YLKEYIPKA | 1.7
232 | GLYYQGSCYI | 5.1
233 | LLSAINFKI | 0.54
234 | YIIRYPVKRI | 1020
235 | ILMDSIFVST | 45
236 | GTYAVNIHV | 33
237 | VVLDATNDGL | 1450
238 | YLLAVCGCI | 13
239 | IMEYHLLFA | 13
240 | NTFYLFTFT | 492
241 | HLIKIPLLI | 1.9
242 | PVNAINDRL | 3460
243 | YLMDEEVPA | 13
244 | YLGMFNPYSL | 0.16
245 | IIAIVFVFI | 241
246 | ALWIPDLFM | 0.14
247 | LVDAIDNIV | 37
248 | SMISRHCCI | 986

The sequences below were run against HLA-A*02:02 in the same assay as above. Settings: source organism: Hepatitis B virus.

Row | Sequence | IC50 [nM]
249 | GLSPTVWLSV | 23

The sequences below were run against HLA-A*02:03 in the same assay as above. Settings: source organism: Hepatitis B virus.

Row | Sequence | IC50 [nM]
250 | SLNFLGGTTV | 0.67
251 | SILSPFLPLL | 16
